Columns and labels:
[1] = biological target: myosin light chain 1 (MLC1) (Toxoplasma gondii (endogenous in tachyzoites)); assay: co-IP; polyclonal anti-MLC1 or anti-GAP45 antibodies on [35S]-labelled wild type (RH) and MyoA-KO parasites and on MyoA-iKO parasites +/- ATc, Triton X-100 lysate, autoradiography, bands quantified with ImageJ
[2] = biological target: gliding-associated protein GAP45 (Toxoplasma gondii (endogenous in tachyzoites)) (UniProt Q7Z289); assay: as above

myosin C (MyoC) (natural protein) gave a more MyoC co-precipitated in the absence of MyoA than in its presence [1] of 50% and a more MyoC co-precipitated in the absence of MyoA than in its presence [2] of 50%.

Reference: publication PMC4231161
